According to paper PMC5758563, “Structural analysis of mtEXO mitochondrial RNA degradosome reveals tight coupling of nuclease and helicase components”:

Target: Cg-Dss1 (full-length, wild type) (Candida glabrata, UniProt Q6FJE0 24-923)
Assay: footprinting (RNase I protection); 2 mM ATP, 3 mM MgCl2; RNase I footprinting: 100 nM RNA, 150 nM protein, 20 mM Tris pH 7.4, 50 mM NaCl, 3 mM MgCl2, with or without 2 mM ATP, 30 C; EDTA added before RNase I. Crystal
Settings: protein: recombinant; tags: His6-MBP removed by TEV; label: 32P body label

B1: L1 RNA (79 nt) (structured_RNA)
RNA: GGAACUCCAUAUAUGGGCUAUGAACUAAUGACCCCGUAAUUGAUUACUAUUAGCCCGGGCAAUGUGCACAUGUACCCUA
B1: binds.
